From publication PMC2812487

Key:
HLA-Cw6 on 721.221 cells = test: flow cytometry on cells (Ig-fusion protein staining)
HLA-Cw3 on 721.221 cells = test: as above

A response (HLA-Cw6 on 721.221 cells) of 1.05 MFI and a response (HLA-Cw3 on 721.221 cells) of 114 MFI were found for “KIR2DS2-Ig (from UniProt P43631) KYK/KFK” in this work.
